Results: PMC10873595, “Filament structure and subcellular organization of the bacterial intermediate filament–like protein crescentin” (Proceedings of the National Academy of Sciences of the …, 2024)
Read-outs that look alike come from different tables or passages of the source.

T1: CreS-His (full-length CreS followed by GSHHHHHH) (Caulobacter crescentus (vibrioides) …)
T1 construct: crescentin (CreS), Caulobacter crescentus (vibrioides), residues 1-457; also called pFE127 product; source: E. coli C41 (DE3), in cleared lysate; also purified (HisTrap, size exclusion chromatography)
T1 chain: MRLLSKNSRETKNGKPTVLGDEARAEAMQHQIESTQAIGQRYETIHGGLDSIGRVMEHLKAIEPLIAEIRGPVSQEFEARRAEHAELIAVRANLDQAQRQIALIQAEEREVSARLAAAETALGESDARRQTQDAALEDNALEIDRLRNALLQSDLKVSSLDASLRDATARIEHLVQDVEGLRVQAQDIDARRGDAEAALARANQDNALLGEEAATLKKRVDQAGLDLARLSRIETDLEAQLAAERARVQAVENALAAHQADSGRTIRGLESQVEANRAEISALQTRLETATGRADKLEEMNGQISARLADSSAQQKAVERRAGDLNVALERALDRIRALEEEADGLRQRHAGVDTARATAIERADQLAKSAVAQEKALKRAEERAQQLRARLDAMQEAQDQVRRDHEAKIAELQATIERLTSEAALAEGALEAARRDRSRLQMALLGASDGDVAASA


Legend:
[1] = target: T1, CreS-His (full-length CreS followed by …); experiment: far-Western, overlay or dot blot; cleared lysates of E. coli C41 (DE3) expressing CreS-His variants resolved by SDS-PAGE, blotted, probed with NB13 (7 µg/mL) then α-HA-peroxidase; conditions: one partner purified
[2] = target: T1, CreS-His (full-length CreS followed by …)

binding result [1] | binding result [2] | Binder
binds | – | nanobody 13 (NB13) (VHH, camelid nanobody raised against purified CreSwt; also called CreS-specific nanobody; clone No. 13; source: E. coli WK6, periplasmic extract, purified (HisTrap); not shown: HA, C-terminal, kept) VHH: QVQLQESGGGLVQTGGSLRLSCASSRSIDGINIMRWYRQAPGKQRGMVAVVTGWGSTNYVDSVKGRFIISRDSAKDTVYLQMNNLKPEDTAVYSCNAIYRGSEYWGQGTQVTVSS
– | binds | Megabody MB13 (NB13, YgjK) (VHH) VHH: AHNTESGEMLFTVKKDSLRLSCASSRSIDGINIMRWYRQAPGKQRGMVAVVTGWGSTNYVDSVKGRFIISRDSAKDTVYLQMNNLKPEDTAVYSCNAIYRGSEYWGQGTQVTVSS
